According to PMC6208296, “Redox regulation of pyruvate kinase M2 by cysteine oxidation and S-nitrosation” (Biochemical Journal, 2018):

Columns and labels:
[1] = target: the molecule itself; experiment: SEC; analytical gel filtration, Superdex 200 PC 3.2/30 in PBS-CM, room temperature; 0.1 mg/ml incubated 12 h (equilibrium) without or with 1 mM DTT or 20 μM H2O2; tetramer to monomers, peak areas on a bimodal distribution
[2] = target: the molecule itself; experiment: crystal structure; hanging drop vapour diffusion, 10 mg/ml protein with 5 mM of each ligand, PEG 3350, sodium cacodylate pH 6, 50 mM MgCl2, 100 mM KCl; 18°C (C424A, with F-1,6-BP, oxalate and ATP) or 4°C (C358S)
[3] = target: the molecule itself; experiment: cell-based or functional assay

B1: M2PYK C358S (enzyme)
chain: not shown
notes: pyruvate kinase, M2 isoform (M2PYK), human, point mutant made on pET28a-M2PYK; Made by QuikChange on pET28a-M2PYK; no step that removes the His tag is described; also called Cys358Ser; MPYK C358S; source: E. coli BL21, purified (cobalt IMAC, Superdex 200 gel filtration)
stoichiometry N [1]: 4

B2: M2PYK C424A (enzyme)
chain: not shown
notes: pyruvate kinase, M2 isoform (M2PYK), human, point mutant made on pET28a-M2PYK; Made by QuikChange on pET28a-M2PYK; no step that removes the His tag is described; source: E. coli BL21, purified (cobalt IMAC, Superdex 200 gel filtration)
binding result [2]: binds

B3: M2PYK C326S (enzyme)
chain: not shown
enzymatic activity, LDH-coupled assay, without F-1,6-BP, relative to M2PYK WT [3]: ~20 % of WT activity
